Source: the supplement of paper PMC9112550, “Optimization of the antimicrobial peptide Bac7 by deep mutational scanning” (BMC Biology, 2022)

System: Escherichia coli TOP10
Experiment: shrunken log2 fold change of peptide-encoding DNA abundance (4.5 h post-induction vs induction); higher = less antimicrobial activity (less host growth inhibition)
Conditions: time post-induction: 4.5 h; library: site-saturation at positions 5, 18, 19, 20
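Also: peptides expressed intracellularly from a pBAD plasmid library in pooled LB shake-flask culture, induced with 0.3% L-arabinose, DNA abundance read by NGS, three biological replicates, DESeq2 with apeglm shrinkage.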

In order of rising “shrunken log2 fold change” value:
1. RRIRCRPPRLPRPRPRPYTEPRP  -1.42
2. RRIRCRPPRLPRPRPRPYYHPRP  -1.28
3. RRIRCRPPRLPRPRPRPYQNPRP  -1.1
4. RRIRCRPPRLPRPRPRPYYCPRP  -1.03
5. RRIRCRPPRLPRPRPRPYVTPRP  -0.893
6. RRIRDRPPRLPRPRPRPFNQPRP  -0.733
7. RRIRCRPPRLPRPRPRPYQDPRP  -0.725
8. RRIRDRPPRLPRPRPRPFKGPRP  -0.617
9. RRIRCRPPRLPRPRPRPYPQPRP  -0.595
10. RRIRDRPPRLPRPRPRPGYSPRP  -0.591
11. RRIRDRPPRLPRPRPRPHHNPRP  -0.562
12. RRIRDRPPRLPRPRPRPHHHPRP  -0.505
13. RRIRDRPPRLPRPRPRPHHFPRP  -0.49
14. RRIRCRPPRLPRPRPRPYPVPRP  -0.441
15. RRIRDRPPRLPRPRPRPGYLPRP  -0.394
16. RRIRDRPPRLPRPRPRPHHDPRP  -0.336
17. RRIRDRPPRLPRPRPRPHQNPRP  -0.303
18. RRIRCRPPRLPRPRPRPYPDPRP  -0.282
19. RRIRDRPPRLPRPRPRPHHRPRP  -0.277
20. RRIRDRPPRLPRPRPRPFYQPRP  -0.276
21. RRIRDRPPRLPRPRPRPFIAPRP  -0.237
22. RRIRDRPPRLPRPRPRPGMPPRP  -0.221
23. RRIRDRPPRLPRPRPRPANNPRP  -0.218
24. RRIRDRPPRLPRPRPRPHVKPRP  -0.205
25. RRIRDRPPRLPRPRPRPAFHPRP  -0.193
26. RRIRCRPPRLPRPRPRPYNMPRP  -0.188
27. RRIRDRPPRLPRPRPRPCLRPRP  -0.188
28. RRIRDRPPRLPRPRPRPFNMPRP  -0.186
29. RRIRDRPPRLPRPRPRPGQPPRP  -0.181
30. RRIRDRPPRLPRPRPRPENIPRP  -0.172
31. RRIRDRPPRLPRPRPRPFIGPRP  -0.158
32. RRIRDRPPRLPRPRPRPFFNPRP  -0.156
33. RRIRDRPPRLPRPRPRPCQPPRP  -0.144
34. RRIRDRPPRLPRPRPRPFPEPRP  -0.144
35. RRIRDRPPRLPRPRPRPCQWPRP  -0.134
36. RRIRDRPPRLPRPRPRPFTTPRP  -0.132
37. RRIRDRPPRLPRPRPRPFDAPRP  -0.13
38. RRIRDRPPRLPRPRPRPDKQPRP  -0.129
39. RRIRDRPPRLPRPRPRPFTAPRP  -0.128
40. RRIRDRPPRLPRPRPRPHFRPRP  -0.121
41. RRIRDRPPRLPRPRPRPFHPPRP  -0.106
42. RRIRDRPPRLPRPRPRPCPGPRP  -0.0964
43. RRIRDRPPRLPRPRPRPHVQPRP  -0.0912
44. RRIRDRPPRLPRPRPRPCYPPRP  -0.0894
45. RRIRDRPPRLPRPRPRPFSTPRP  -0.0877
46. RRIRDRPPRLPRPRPRPCTHPRP  -0.0766
47. RRIRDRPPRLPRPRPRPHPHPRP  -0.0722
48. RRIRDRPPRLPRPRPRPGNKPRP  -0.0705
49. RRIRDRPPRLPRPRPRPCFCPRP  -0.054
50. RRIRDRPPRLPRPRPRPHTCPRP  -0.0522
51. RRIRDRPPRLPRPRPRPCTNPRP  -0.0463
52. RRIRDRPPRLPRPRPRPFKVPRP  -0.0463
53. RRIRDRPPRLPRPRPRPANTPRP  -0.0443
54. RRIRDRPPRLPRPRPRPGVHPRP  -0.0373
55. RRIRDRPPRLPRPRPRPAESPRP  -0.0371
56. RRIRDRPPRLPRPRPRPFELPRP  -0.0281
57. RRIRDRPPRLPRPRPRPGMLPRP  -0.0263
58. RRIRDRPPRLPRPRPRPCGQPRP  -0.0223
59. RRIRDRPPRLPRPRPRPGHCPRP  -0.0141
60. RRIRDRPPRLPRPRPRPCQAPRP  -0.0133
61. RRIRDRPPRLPRPRPRPGYEPRP  -0.0119
62. RRIRDRPPRLPRPRPRPETGPRP  -0.0106
63. RRIRDRPPRLPRPRPRPEYMPRP  -0.00941
64. RRIRDRPPRLPRPRPRPERQPRP  -0.00783
65. RRIRDRPPRLPRPRPRPGENPRP  -0.00211
66. RRIRDRPPRLPRPRPRPDGGPRP  -0.00182
67. RRIRDRPPRLPRPRPRPEFPPRP  -0.00168
68. RRIRDRPPRLPRPRPRPDDPPRP  -0.00152
69. RRIRDRPPRLPRPRPRPCRFPRP  -0.00146
70. RRIRDRPPRLPRPRPRPCLKPRP  -0.000218
71. RRIRDRPPRLPRPRPRPEYHPRP  -0.000207
72. RRIRDRPPRLPRPRPRPGVPPRP  0.000778
73. RRIRDRPPRLPRPRPRPCHMPRP  0.00148
74. RRIRDRPPRLPRPRPRPHKQPRP  0.00319
75. RRIRDRPPRLPRPRPRPHSEPRP  0.00449
76. RRIRCRPPRLPRPRPRPYPCPRP  0.00458
77. RRIRDRPPRLPRPRPRPESVPRP  0.0047
78. RRIRDRPPRLPRPRPRPHLGPRP  0.0158
79. RRIRDRPPRLPRPRPRPFMQPRP  0.0183
80. RRIRDRPPRLPRPRPRPGQIPRP  0.0221
81. RRIRDRPPRLPRPRPRPDDHPRP  0.023
82. RRIRDRPPRLPRPRPRPDPHPRP  0.0248
83. RRIRDRPPRLPRPRPRPDHNPRP  0.0311
84. RRIRDRPPRLPRPRPRPCMVPRP  0.0359
85. RRIRDRPPRLPRPRPRPDNSPRP  0.0428
86. RRIRDRPPRLPRPRPRPENFPRP  0.043
87. RRIRDRPPRLPRPRPRPEYFPRP  0.0472
88. RRIRCRPPRLPRPRPRPYQRPRP  0.055
89. RRIRDRPPRLPRPRPRPHMDPRP  0.0662
90. RRIRDRPPRLPRPRPRPCQIPRP  0.0759
91. RRIRDRPPRLPRPRPRPCFVPRP  0.0784
92. RRIRDRPPRLPRPRPRPDIVPRP  0.0868
93. RRIRDRPPRLPRPRPRPDWHPRP  0.0912
94. RRIRDRPPRLPRPRPRPCLHPRP  0.0931
95. RRIRDRPPRLPRPRPRPDTPPRP  0.0945
96. RRIRDRPPRLPRPRPRPDIEPRP  0.105
97. RRIRDRPPRLPRPRPRPGQSPRP  0.116
98. RRIRDRPPRLPRPRPRPGTVPRP  0.118
99. RRIRDRPPRLPRPRPRPFDFPRP  0.122
100. RRIRDRPPRLPRPRPRPHCAPRP  0.143
101. RRIRDRPPRLPRPRPRPHEAPRP  0.151
102. RRIRDRPPRLPRPRPRPDDNPRP  0.153
103. RRIRDRPPRLPRPRPRPFCEPRP  0.159
104. RRIRDRPPRLPRPRPRPEIWPRP  0.162
105. RRIRDRPPRLPRPRPRPELFPRP  0.184
106. RRIRDRPPRLPRPRPRPAQEPRP  0.185
107. RRIRDRPPRLPRPRPRPEKLPRP  0.19
108. RRIRDRPPRLPRPRPRPDTRPRP  0.203
109. RRIRDRPPRLPRPRPRPDMYPRP  0.214
110. RRIRDRPPRLPRPRPRPAECPRP  0.232
111. RRIRDRPPRLPRPRPRPCGHPRP  0.232
112. RRIRDRPPRLPRPRPRPDGMPRP  0.232
113. RRIRDRPPRLPRPRPRPCVQPRP  0.239
114. RRIRDRPPRLPRPRPRPGLSPRP  0.241
115. RRIRDRPPRLPRPRPRPAGVPRP  0.25
116. RRIRDRPPRLPRPRPRPAANPRP  0.273
117. RRIRDRPPRLPRPRPRPELHPRP  0.319
118. RRIRDRPPRLPRPRPRPALMPRP  0.333
119. RRIRDRPPRLPRPRPRPDTWPRP  0.335
120. RRIRDRPPRLPRPRPRPGAFPRP  0.357
121. RRIRDRPPRLPRPRPRPCTEPRP  0.373
122. RRIRDRPPRLPRPRPRPASPPRP  0.384
123. RRIRDRPPRLPRPRPRPFFAPRP  0.412
124. RRIRDRPPRLPRPRPRPAKPPRP  0.419
125. RRIRDRPPRLPRPRPRPAALPRP  0.488
126. RRIRDRPPRLPRPRPRPGPVPRP  0.545
127. RRIRDRPPRLPRPRPRPCFDPRP  0.581
128. RRIRDRPPRLPRPRPRPHLWPRP  0.611
129. RRIRDRPPRLPRPRPRPGDDPRP  0.636
130. RRIRDRPPRLPRPRPRPFWWPRP  0.641
131. RRIRDRPPRLPRPRPRPEKIPRP  0.652
132. RRIRDRPPRLPRPRPRPGADPRP  0.655
133. RRIRDRPPRLPRPRPRPALEPRP  0.659
134. RRIRDRPPRLPRPRPRPGGCPRP  0.687
135. RRIRDRPPRLPRPRPRPAPGPRP  0.699
136. RRIRDRPPRLPRPRPRPGMEPRP  0.784
137. RRIRDRPPRLPRPRPRPASWPRP  0.805
138. RRIRDRPPRLPRPRPRPEFEPRP  0.824
139. RRIRDRPPRLPRPRPRPGWRPRP  0.832
140. RRIRDRPPRLPRPRPRPGFAPRP  0.992
141. RRIRDRPPRLPRPRPRPECTPRP  1.05
142. RRIRDRPPRLPRPRPRPAREPRP  1.06
143. RRIRDRPPRLPRPRPRPAWEPRP  1.07
144. RRIRDRPPRLPRPRPRPDMQPRP  1.13
145. RRIRDRPPRLPRPRPRPEALPRP  1.21
146. RRIRDRPPRLPRPRPRPAAEPRP  1.25
147. RRIRDRPPRLPRPRPRPEMRPRP  1.29
148. RRIRDRPPRLPRPRPRPCMLPRP  1.36
149. RRIRDRPPRLPRPRPRPEDWPRP  1.45
150. RRIRDRPPRLPRPRPRPEATPRP  1.98
